Patent US20060040325A1 (AstraZeneca / MedImmune, published 2006)
Values belong to the binder of their own block, whether it stands above or below them.

Key:
[1] = target: T1, FcγRIIIA (soluble receptor used as analyte in the BIAcore runs) (human, UniProt P08637 17-208); test: SPR (BIAcore 3000), IgG amine-coupled to CM5, soluble FcγRIIIA injected; Scatchard plot of Req; Run 3
T1 construct: extracellular domain; The BIAcore methods only say 'FcγRIIIA'; also called FcγIIIA
Method: (§1) FcγRIIIA was serially diluted in 0.01 M HEPES pH 7.4 containing 0.15 M NaCl, 3 mM EDTA and 0.005% P20, at concentrations ranging from 16 uM down to 7.8 nM. Duplicate injections of each concentration were made. All binding experiments were performed at 25° C., and at a flow rate of 10 uL/min. Binding was monitored for 25 min. Following each injection of FcγRIIIA, the IgG surfaces were regenerated with a 30 sec. pulse of 5 mM HCl. FcγRIIIA was also passed over a blank reference cell which is connected, in series, to the IgG-containing flow cells. The steady-state binding curves were also corrected for injection artifacts by subtraction of buffer injections. This doubly-corrected data was then fit to a steady-state isotherm provided by the instrument manufacturer (Pharmacia Biosensor, Uppsala, Sweden) to derive the respective equilibrium binding constants (KD). Separately, a Scatchard plot of the Req data from each IgG surface was constructed to confirm the results of the binding isotherms.

[2] = target: T2, FcγRIIIA-streptavidin fusion protein (tetramer) (human; Streptomyces avidinii, UniProt P08637 17-208); test: ELISA: antibody captured on protein A/G, FcγRIIIA tetramer, biotin-HRP, OD450
T2 construct: extracellular domain; also called FcγRIIIA tetramer; Fcγtetramer; not shown: streptavidin, amplified with primers SA1/SA2 from genomic DNA of Streptomyces avidinii
T2 sequence (P08637 17-208 limits assumed): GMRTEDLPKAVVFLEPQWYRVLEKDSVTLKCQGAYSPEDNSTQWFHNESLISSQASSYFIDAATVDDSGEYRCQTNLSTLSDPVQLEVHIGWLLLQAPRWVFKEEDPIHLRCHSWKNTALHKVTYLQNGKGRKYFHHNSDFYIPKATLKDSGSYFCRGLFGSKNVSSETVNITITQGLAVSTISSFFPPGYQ
Method: ELISA for FcγRIIIA Tetramer Binding: Microtiter plates were coated with protein A/G (PIERCE) solution (0.25 μg/ml) and incubated at 4° C. overnight. The plates were then washed with PB S/0.1% Tween and any remaining binding sites were blocked with 1% BSA. 50 μl of test antibody at 1:1 dilution (from 5000 ng/ml to 4.9 ng/ml), was added to each well and inclubated for 60 min at 37° C. 50 μl of 1:500 dilution of the Fcγtetramer was added to each well and incubated for 60 min at 37° C. followed by washing. 50 μl of 1:1000 dilution of biotin-conjugated HRP (PIERCE) was added to each well and incubated for 30 min at 37° C. Detection was carried out by adding 30 μl of tetramethylbenzidine (TMB) substrate (Pierce) followed by neutralization with 30 μl of 0.2 M H₂SO₄. The absorbance was read at 450 nm.

[3] = target: T1, FcγRIIIA (soluble receptor used as …); test: SPR (BIAcore 3000), IgG amine-coupled to CM5, soluble FcγRIIIA injected; steady-state isotherm; Run 3
Method: as §1

[4] = target: T3, human C1q complement protein (human, UniProt P02745 23-245; P02746 28-253; P02747 29-245); test: ELISA: antibody coated on the plate, human C1q, anti-C1q antibody, HRP conjugate, OD450
T3 construct: Bought protein ('Quidal, SanDiego')
T3 sequence (P02745 23-245 limits assumed, chain 1 of 3): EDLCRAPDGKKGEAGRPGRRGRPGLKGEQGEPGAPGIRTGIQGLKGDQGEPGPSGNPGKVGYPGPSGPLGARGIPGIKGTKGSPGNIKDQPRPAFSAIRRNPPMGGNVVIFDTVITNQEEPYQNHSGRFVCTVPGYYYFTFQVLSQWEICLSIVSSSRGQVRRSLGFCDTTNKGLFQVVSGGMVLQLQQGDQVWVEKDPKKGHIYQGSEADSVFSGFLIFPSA
T3 sequence (P02746 28-253 limits assumed, chain 2 of 3): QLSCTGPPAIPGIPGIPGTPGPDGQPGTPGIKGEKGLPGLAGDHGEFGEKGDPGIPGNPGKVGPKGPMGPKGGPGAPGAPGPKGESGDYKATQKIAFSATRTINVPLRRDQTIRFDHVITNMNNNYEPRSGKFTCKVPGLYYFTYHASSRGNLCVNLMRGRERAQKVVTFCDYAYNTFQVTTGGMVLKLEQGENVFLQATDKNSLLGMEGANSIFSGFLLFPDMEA
T3 sequence (P02747 29-245 limits assumed, chain 3 of 3): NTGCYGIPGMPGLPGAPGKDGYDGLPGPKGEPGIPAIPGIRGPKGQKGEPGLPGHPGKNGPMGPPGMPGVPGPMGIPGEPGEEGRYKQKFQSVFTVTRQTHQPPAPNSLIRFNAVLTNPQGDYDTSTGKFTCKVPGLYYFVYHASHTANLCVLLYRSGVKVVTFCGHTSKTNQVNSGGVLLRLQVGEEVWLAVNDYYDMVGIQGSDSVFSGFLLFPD
Method: ELISA for C1q Binding: Microtiter plates were coated with 50 μl of test antibody at concentration range from 20 μg/ml to […] and incubated at 4° C. overnight. The plate was then blocked with 5% nonfat powdered milk for 60 min at 37° C. 50 μl of 5 μg/ml human C1q complement protein (Quidal, SanDiego) was added to each well and inclubated for 60 min at 37° C. 50 μl of 1:1000 dilution of anti-complement C1q antibody (Biodesign) was added to each well and incubated for 60 min at 37° C. 50 μl of 1:1000 dilution of donkey anti-sheep/goat antibody-conjugated HRP (PIERCE) was added to each well and incubated for 60 min at 37° C. Detection was carried out by adding 30 μl of tetramethylbenzidine (TMB) substrate (Pierce) followed by neutralization with 30 μl of 0.2 M H₂SO₄. The absorbance was read at 450 nm.

[5] = target: T1, FcγRIIIA (soluble receptor used as …); test: SPR (BIAcore 3000), Run 3; calculated from isotherm KD values against wild type 3F2
Method: as §1

T1 sequence (P08637 17-208): as the sequence (P08637 17-208 limits assumed) above

Kd [1]: 14.2 µM
EC50 (read off the curve) [2]: ~0.2 µg/mL
Kd [3]: 15.6 µM
binding result [4]: binds
B1: 3F2 (wild type anti-EphA2 antibody, IgG1) (antibody)
heavy: not shown
VL: AIQLTQSPSSLSASVGDRVTITCRASQSISNNLHWYLQKPGQSPQLLIYYGFQSISGVPSRFSGSGSGTDFTLTISSLQPEDFATYYCQQANSWPLTFGGGTKLEIK
notes: domain: IgG1 heavy chain constant region; 3F2 variable regions placed in the Vitaxin® IgG1 plasmid and made in NS0 cells; The light chain constant region is not described; also called 3F2-wt; 3F2-WT; copies: 2 + 2

Kd [1]: 1.68 µM
EC50 (read off the curve) [2]: ~0.05 µg/mL
Fold increase over WT [5]: 8.8 fold
Kd [3]: 1.77 µM
binding result [4]: binds
B2: 3F2-1M (3F2 Fc variant I332E, IgG1) (antibody, name in EU numbering)
heavy: not shown
VL: B1 VL
notes: domain: IgG1 heavy chain constant region; Made in NS0 cells; The light chain constant region is not described; also called 3F2 I332E; 3F2-IM; copies: 2 + 2

Kd [1]: 0.162 µM
EC50 (read off the curve) [2]: ~0.05 µg/mL
Fold increase over WT [5]: 99 fold
Kd [3]: 0.158 µM
binding result [4]: binds
B3: 3F2-3M (3F2 Fc variant S239D/A330L/I332E, IgG1) (antibody, name in EU numbering)
heavy: EVQLVESGGGVVRPGGSLRLSCAASGFTVSDYSMNWVRQAPGKGLEWIGFIRNKANAYTTEYSASVKGRFTISRDDSKNTLYLQMNSLKTEDTAVYYCTTYPRYHAMDSWGQGTMVTVSSASTKGPSVFPLAPSSKSTSGGTAALGCLVKDYFPEPVTVSWNSGALTSGVHTFPAVLQSSGLYSLSSVVTVPSSSLGTQTYICNVNHKPSNTKVDKKVEPKSCDKTHTCPPCPAPELLGGPDVFLFPPKPKDTLMISRTPEVTCVVVDVSHEDPEVKFNWYVDGVEVHNAKTKPREEQYNSTYRVVSVLTVLHQDWLNGKEYKCKVSNKALPLPEEKTISKAKGQPREPQVYTLPPSRDELTKNQVSLTCLVKGFYPSDIAVEWESNGQPENNYKTTPPVLDSDGSFFLYSKLTVDKSRWQQGNVFSCSVMHEALHNHYTQKSLSLSPGK
VL: B1 VL
notes: domain: IgG1 heavy chain constant region; Made in NS0 cells; The light chain constant region is not described; also called 3F2 S239D/A330L/I332E; 3M Fc variant; copies: 2 + 2
